Experimental data published in US20250326818A1 (UNIVERSIT T BASEL, published 2025).

Key:
Assay in all cases: BLI (Octet), biotinylated CD123 ECD captured on streptavidin tips, hIL3 as analyte, level at 250 s normalised to loading
[1] = molecular target: T1, CD123 ECD E51K (human, UniProt P26951 19-305)
T1 construct: Recombinant ECD
T1 sequence: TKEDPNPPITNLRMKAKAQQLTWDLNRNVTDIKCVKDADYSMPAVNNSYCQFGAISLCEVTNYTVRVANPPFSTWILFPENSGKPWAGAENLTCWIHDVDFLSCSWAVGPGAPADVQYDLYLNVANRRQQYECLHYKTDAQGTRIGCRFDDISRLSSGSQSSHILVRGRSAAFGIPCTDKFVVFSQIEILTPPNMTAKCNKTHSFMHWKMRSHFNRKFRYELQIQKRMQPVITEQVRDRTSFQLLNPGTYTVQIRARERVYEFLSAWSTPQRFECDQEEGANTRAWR
Method: (§1) Binding of hIL3 (SinoBiological, PN: 11858-H08H) (analyte) to CD123 ECD wt. and variants (ligands) was performed using Streptavidin capture biosensor (SA) (Sartorius, PN: 18-5019). CD123 ECD wt. and variants were biotinylated using Biotinylation kit Type B (Abeam, PN: ab201796) following manufacturer instructions. Biotinylated CD123 ECD wt. and variants (ligands) were captured on SA tips for 1000 s to achieve a nm shift of 1.5 to 2 nm. Analyte hIL3 was titrated at 7 concentrations from 500 to 7.8 nM. Association to analyte was monitored for 300 s and dissociation for 120 s. Buffer only well was used as reference. No regeneration was performed, and a new set of tips was used for each biotinylated captured ligand. Data were analyzed using the Octet Data Analysis software HT 12.0. Due to the fast on/off nature of the interaction data were analyzed using Steady state analysis. Qualitative representation in FIG. 11 binding level were taken at 250 s association for all concentrations.

[2] = molecular target: T2, CD123 ECD R84Q (human, UniProt P26951 19-305)
T2 construct: Recombinant ECD
T2 sequence: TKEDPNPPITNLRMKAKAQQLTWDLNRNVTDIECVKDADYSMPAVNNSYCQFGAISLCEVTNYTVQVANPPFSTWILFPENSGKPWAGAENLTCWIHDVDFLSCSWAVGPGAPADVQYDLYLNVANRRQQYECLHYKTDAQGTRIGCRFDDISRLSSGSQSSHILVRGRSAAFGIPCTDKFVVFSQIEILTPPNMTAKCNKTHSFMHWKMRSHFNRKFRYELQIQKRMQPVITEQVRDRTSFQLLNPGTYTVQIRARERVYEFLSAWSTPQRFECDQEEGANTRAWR
Method: as §1

[3] = molecular target: T3, CD123 ECD wt (human, UniProt P26951 19-305)
T3 construct: Recombinant extracellular domain; Biotinylated when captured for the hIL3 assay; also called CD123_WT; recombinant wildtype CD123
T3 sequence: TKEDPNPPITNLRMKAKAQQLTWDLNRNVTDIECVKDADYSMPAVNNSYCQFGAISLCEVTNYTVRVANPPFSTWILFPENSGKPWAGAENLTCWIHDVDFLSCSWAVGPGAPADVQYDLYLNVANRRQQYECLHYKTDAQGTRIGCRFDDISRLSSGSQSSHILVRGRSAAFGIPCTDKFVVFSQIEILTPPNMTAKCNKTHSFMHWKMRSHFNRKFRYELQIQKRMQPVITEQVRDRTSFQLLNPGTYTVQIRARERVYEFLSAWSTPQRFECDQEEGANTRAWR
Method: as §1

[4] = molecular target: T4, CD123 ECD S59E (human, UniProt P26951 19-305)
T4 construct: Recombinant ECD
T4 sequence: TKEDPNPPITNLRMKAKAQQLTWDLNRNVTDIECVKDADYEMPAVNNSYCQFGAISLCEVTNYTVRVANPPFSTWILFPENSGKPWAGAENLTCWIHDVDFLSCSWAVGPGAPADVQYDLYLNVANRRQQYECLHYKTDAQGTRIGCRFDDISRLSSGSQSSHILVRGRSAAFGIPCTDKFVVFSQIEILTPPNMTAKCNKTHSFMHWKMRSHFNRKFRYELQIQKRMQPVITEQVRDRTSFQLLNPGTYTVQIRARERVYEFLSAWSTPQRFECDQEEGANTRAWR
Method: as §1

[5] = molecular target: T5, CD123 ECD E51A (human, UniProt P26951 19-305)
T5 construct: Recombinant ECD
T5 sequence: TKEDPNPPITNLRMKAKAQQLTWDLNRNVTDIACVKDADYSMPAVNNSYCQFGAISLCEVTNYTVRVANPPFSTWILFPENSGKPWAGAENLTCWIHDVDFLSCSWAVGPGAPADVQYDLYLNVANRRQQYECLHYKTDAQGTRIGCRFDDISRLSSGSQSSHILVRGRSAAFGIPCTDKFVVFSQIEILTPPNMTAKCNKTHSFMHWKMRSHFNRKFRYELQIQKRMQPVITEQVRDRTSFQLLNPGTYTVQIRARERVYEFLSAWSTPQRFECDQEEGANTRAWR
Method: as §1

[6] = molecular target: T6, CD123 ECD S59Y (human, UniProt P26951 19-305)
T6 construct: Recombinant ECD
T6 sequence: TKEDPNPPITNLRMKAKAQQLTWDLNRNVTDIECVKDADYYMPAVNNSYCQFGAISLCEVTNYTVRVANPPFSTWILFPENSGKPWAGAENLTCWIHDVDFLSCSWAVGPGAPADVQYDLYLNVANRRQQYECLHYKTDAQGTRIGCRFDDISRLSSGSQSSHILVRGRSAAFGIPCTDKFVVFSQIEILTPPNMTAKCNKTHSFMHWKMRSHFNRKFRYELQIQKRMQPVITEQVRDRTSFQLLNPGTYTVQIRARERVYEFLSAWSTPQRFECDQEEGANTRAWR
Method: as §1

Measured: binding result

B1: hIL3 (ligand, human, UniProt P08700 20-152, looked up)
chain: APMTQTTPLKTSWVNCSNMIDEIITHLKQPPLPLLDFNNLNGEDQDILMENNLRRPNLEAFNRAVKSLQNASAIESILKNLLPCLPLATAAPTRHPIHIKDGDWNEFRRKLTFYLKTLENAQAQQTTLSLAIF
notes: also called Interleukin-3
binds: all assays above
